The target of assay [1] is T1, CDP-diacylglycerol synthase 1 (human, UniProt Q92903 1-461).
T1 construct: HuProt array protein, full-length recombinant from yeast; also called CDS1
T1 sequence: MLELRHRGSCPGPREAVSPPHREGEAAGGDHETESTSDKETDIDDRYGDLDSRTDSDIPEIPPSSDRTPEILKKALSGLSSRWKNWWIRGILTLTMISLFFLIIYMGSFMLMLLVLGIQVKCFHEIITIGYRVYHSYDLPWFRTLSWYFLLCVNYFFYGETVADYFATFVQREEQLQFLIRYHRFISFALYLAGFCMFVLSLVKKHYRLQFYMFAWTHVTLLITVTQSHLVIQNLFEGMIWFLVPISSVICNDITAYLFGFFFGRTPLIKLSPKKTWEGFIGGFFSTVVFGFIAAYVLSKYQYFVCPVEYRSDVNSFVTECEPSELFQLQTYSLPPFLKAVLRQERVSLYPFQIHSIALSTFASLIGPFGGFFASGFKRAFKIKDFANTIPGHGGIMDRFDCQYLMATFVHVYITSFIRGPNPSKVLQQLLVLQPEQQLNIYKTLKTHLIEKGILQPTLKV

For assay [2], the target named is T2, dynein axonemal assembly factor 3, transcript variant 3 (human, UniProt Q8N9W5 1-541).
T2 construct: HuProt array protein, full-length recombinant from yeast; also called DNAAF3
T2 sequence: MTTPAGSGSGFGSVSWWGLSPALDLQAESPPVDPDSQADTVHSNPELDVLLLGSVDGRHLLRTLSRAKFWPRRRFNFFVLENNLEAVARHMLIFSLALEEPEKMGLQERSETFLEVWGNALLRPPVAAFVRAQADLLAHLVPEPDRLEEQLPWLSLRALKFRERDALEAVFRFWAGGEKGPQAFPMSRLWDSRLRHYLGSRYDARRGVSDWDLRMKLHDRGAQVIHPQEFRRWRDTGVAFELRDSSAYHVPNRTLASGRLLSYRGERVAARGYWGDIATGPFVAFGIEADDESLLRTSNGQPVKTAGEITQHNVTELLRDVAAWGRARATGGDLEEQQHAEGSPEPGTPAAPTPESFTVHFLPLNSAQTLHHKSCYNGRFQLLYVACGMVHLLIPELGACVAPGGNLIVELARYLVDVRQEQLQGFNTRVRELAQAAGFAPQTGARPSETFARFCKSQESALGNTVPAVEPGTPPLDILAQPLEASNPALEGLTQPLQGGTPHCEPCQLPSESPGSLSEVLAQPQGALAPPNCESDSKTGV

For assay [3], the target named is T3, proliferating cell nuclear antigen, transcript variant 1 (human, UniProt P12004 1-261).
T3 construct: HuProt array protein, full-length recombinant from yeast; also called PCNA
T3 sequence (P12004 whole entry, change not shown): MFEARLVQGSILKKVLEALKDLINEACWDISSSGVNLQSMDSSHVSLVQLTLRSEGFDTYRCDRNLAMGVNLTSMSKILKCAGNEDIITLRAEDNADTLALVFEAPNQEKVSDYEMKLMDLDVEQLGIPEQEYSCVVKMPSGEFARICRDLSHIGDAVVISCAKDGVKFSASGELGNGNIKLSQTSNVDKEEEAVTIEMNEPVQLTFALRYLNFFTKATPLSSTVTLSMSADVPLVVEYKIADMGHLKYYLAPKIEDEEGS

Assay [4] concerns the target T4, aarF domain containing kinase 5 (human, UniProt Q3MIX3 1-580).
T4 construct: HuProt array protein, full-length recombinant from yeast; also called ADCK5

Assay [5] deals with T5, S100 calcium binding protein B (human, UniProt P04271 2-92).
T5 construct: HuProt array protein, full-length recombinant from yeast; also called S100B
T5 sequence: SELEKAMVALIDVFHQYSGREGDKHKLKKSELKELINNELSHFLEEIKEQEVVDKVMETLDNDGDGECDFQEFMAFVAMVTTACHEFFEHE

In assay [6] the target is aldo-keto reductase family 1 member B, transcript variant 1 (human, UniProt P15121 2-316).
Assay [7] deals with T6, NCCRP1, F-box associated domain containing (human, UniProt Q6ZVX7 1-275).
T6 construct: HuProt array protein, full-length recombinant from yeast
T6 sequence: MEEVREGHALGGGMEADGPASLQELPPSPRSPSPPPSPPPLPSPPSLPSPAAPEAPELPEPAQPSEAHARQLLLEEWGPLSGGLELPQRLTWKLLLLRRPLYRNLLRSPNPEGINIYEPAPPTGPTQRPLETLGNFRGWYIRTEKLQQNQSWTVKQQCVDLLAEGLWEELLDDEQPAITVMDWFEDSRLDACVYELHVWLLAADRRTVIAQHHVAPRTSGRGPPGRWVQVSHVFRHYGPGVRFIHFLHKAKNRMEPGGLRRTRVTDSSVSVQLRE

The target of assay [8] is T7, coiled-coil domain containing 102A, transcript variant X1 (human, UniProt Q96A19 1-550).
T7 construct: HuProt array protein, full-length recombinant from yeast; also called CCDC102A
T7 sequence (Q96A19 other isoform, or with tags, fused parts or gaps mutant limits assumed): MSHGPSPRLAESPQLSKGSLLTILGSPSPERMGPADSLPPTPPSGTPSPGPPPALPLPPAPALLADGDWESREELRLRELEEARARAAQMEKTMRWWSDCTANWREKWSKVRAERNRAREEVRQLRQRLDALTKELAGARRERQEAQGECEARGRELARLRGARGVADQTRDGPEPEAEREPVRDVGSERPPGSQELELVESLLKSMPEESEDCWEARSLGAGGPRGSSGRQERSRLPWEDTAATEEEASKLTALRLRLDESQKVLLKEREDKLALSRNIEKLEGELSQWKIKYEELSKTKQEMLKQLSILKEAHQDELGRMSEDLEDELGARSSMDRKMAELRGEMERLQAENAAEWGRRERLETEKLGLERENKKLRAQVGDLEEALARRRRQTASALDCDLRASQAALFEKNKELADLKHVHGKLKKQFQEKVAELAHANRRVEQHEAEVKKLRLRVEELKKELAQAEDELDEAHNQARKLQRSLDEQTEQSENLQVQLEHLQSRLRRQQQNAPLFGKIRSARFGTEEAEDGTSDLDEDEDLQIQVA

Assay [9] addresses T8, RNA binding motif protein 47, transcript variant X10 (human, UniProt A0AV96 1-593).
T8 construct: HuProt array protein, full-length recombinant from yeast; also called RBM47
T8 sequence: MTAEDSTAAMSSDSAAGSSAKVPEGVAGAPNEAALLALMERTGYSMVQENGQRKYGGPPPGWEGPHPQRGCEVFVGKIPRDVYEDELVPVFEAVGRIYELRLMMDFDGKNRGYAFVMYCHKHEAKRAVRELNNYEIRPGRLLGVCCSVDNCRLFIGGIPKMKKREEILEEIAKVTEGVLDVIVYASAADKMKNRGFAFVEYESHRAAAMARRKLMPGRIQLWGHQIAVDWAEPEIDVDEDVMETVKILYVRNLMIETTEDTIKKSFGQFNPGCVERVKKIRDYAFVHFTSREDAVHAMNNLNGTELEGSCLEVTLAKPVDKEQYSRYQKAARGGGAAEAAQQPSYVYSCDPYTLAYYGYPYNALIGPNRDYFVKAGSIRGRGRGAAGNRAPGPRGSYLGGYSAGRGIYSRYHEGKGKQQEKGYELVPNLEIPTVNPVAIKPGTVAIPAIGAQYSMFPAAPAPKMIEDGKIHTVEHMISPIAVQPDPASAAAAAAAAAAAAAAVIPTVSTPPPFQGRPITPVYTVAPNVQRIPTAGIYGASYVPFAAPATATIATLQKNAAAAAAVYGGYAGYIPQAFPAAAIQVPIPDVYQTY

Assay [10] has as its target T9, RAD1 checkpoint DNA exonuclease, transcript variant 1 (human, UniProt O60671 1-282).
T9 construct: HuProt array protein, full-length recombinant from yeast
T9 sequence: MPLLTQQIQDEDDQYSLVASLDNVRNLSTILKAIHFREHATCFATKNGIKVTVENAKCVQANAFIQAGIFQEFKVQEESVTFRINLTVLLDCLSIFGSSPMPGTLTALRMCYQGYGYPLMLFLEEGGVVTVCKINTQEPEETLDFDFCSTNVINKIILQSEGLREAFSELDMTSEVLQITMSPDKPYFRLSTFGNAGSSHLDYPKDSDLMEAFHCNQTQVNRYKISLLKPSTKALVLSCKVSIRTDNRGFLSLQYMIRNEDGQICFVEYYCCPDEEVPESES

Assay [11] has as its target T10, Microtubule associated scaffold protein 1 (human, UniProt Q9ULD2 875-1270).
T10 construct: HuProt array protein, full-length recombinant from yeast; also called MTUS1
T10 sequence: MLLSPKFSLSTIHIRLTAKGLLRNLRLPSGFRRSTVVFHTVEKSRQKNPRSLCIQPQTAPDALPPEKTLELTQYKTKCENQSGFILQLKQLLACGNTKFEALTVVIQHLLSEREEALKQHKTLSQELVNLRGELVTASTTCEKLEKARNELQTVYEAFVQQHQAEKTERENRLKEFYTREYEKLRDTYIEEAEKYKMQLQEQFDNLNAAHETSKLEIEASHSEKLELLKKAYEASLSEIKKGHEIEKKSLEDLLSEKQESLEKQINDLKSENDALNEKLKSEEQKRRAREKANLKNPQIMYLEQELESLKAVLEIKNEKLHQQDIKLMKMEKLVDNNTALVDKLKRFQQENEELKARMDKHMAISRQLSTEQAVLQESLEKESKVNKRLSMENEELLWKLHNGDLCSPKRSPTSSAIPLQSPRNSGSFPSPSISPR

T4 sequence (Q3MIX3 other isoform, or with tags, fused parts or gaps limits assumed): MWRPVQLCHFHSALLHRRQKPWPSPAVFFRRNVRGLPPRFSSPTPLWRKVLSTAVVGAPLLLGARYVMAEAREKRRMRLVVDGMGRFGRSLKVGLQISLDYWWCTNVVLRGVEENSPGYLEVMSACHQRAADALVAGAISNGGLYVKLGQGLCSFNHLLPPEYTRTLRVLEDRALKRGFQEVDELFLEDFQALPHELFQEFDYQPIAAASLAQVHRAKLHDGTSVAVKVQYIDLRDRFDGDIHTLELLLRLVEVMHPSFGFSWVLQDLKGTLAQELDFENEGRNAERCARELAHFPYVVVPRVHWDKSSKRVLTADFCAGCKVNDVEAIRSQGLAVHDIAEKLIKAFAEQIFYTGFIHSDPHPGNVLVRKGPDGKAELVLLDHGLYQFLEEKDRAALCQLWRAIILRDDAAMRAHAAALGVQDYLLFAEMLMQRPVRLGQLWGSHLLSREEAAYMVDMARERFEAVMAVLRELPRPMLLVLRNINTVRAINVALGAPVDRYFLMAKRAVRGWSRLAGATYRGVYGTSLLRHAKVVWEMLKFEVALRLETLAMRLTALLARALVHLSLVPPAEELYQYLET

B1: THNS1014 (antibody, V domains shown)
VH: HVQLLQSGPGLVKPSQTLSLTCAISGDSVSSTSGAWNWIRQSPSRGLEWLGRTYYRSQWMNDYAESVRSRITINPDTSKNQFSLQLKSVTPEDTAVYYCTRGWAFTSSDWGQGTQVTVSS
VL: EIVLTQSPGTLSLSPGERATLSCRASQSFDGKSLAWYQQKPGQTPRLLVYGASSRATGIPDRFGGSGSGTDFTLTISRLESEDFAVYFCQQYAYVPITFGQGTRLERKR
notes: detected with anti-human IgG Fc
For B1, the binding result in [1] and in [2] was “binds” throughout.

B2: TKIC1007 (antibody, V domains shown)
VH: GVDLVESGGGLVKPGGSLRLSCAASGFSFSRYNINWVRQAPGKGLEWVSSISSTSNYIYYADSVKGRFTISRDNAKNSLYLQMNSLRAEDTAVYYCARAMGGYTYYLDDWGQGTLVTVSS
VL: QSALTQPASVSGSPGQSITISCTGTSSDVGLYNFVSWYQQHPGKAPKLMIFDVNNRPSGVSNRFSGSKSDNTASLTISGLQAEDEADYYCSSYSRTTTLVFGGGTKVTVLG
notes: as for B1
Take B2: the binding result in [3] is listed as “binds”.

B3: TKIC1002 (antibody, V domains shown)
VH: PVQLQESGPGLVKPSETLSLTCTVSGGSISSYYWSWIRQPPGKGLEWIGYLFYSGSTNYNPSLKSRVTISVDTSKNQFSLKLGSVTAADTAVYYCARHRIFGLDVWGQGTTVTVSS
VL: EIVLTQSPGTLSLSLGERATLSCRASQSVSGSHLAWYQQKPGQAPRLLIYDASSRATGIPDRFSGSGSGTEFTLTISRLEPEDFAVYYCQQYGSSPLWFGQGTKVEIK
notes: as for B1
Regarding B3, the binding result in assay [4] is given as “binds”.

B4: TKIC1012 (antibody, V domains shown)
VH: VVQLVESGGGLVQPGGSLRLSCAASGFSFSTYWMSWVRQAPGKGLEWVANIKQDGSEKHYVDSVKGRFTISRDNAKNSLYLQMNSLRAEDTAMYYCARRAYSFDYWGQGTLVTVSS
VL: DIQMTQSPSTLSASVGDKVTITCRASQSVGSWLAWYQQKPGKAPKLLISVASSLESGVPSRFSGSGSGTEFTLTVSSLQPDDFATYYCQQYNSYSWTFGQGTKVELKR
notes: as for B1
With B4, the binding result in [5] is given as “binds”.

B5: TKIC1006 (antibody, V domains shown)
VH: QVQLVQSGAEVKKPGSSVKVSCKTSGGTFSSYTISWVRQAPGQGPEWMGRIIPILNITNYAQKFQGRVTITADKSTSTTYMEMGSLRSEDTAVYFCARSFYGSGLQWGQGTLVTVSS
VL: EIVLTQSPGTLSLSPGERATLSCRASQSVSSSYLVWYQQKAGQAPRLLIYGASSRATGISDRFSGSGSGTDFTLTISRLEPEDFAVYYCQHFRSSPPTYTFGQGTKLEIKR
notes: as for B1
With B5, the binding result in assay [6] is on record as “binds”.

B6: THNS1003 (antibody, V domains shown)
VH: VVQLVESGGGLVQPGGSLRLSCAASGFTFNNYEMNWVRQAPGKGLEWVSYISSSGSTIYYADSVKGRFTISRDNAKNSLYLQMNSLRAEDTAVYYCARQMVTTRGYWGQGTLVTVSS
VL: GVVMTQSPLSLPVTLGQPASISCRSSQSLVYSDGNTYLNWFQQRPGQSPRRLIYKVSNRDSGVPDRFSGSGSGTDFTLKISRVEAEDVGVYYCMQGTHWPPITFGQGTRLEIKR
notes: as for B1
Take B6: the binding result in assay [7] and in assay [8] was “binds” each time.

B7: THNS1004 (antibody, V domains shown)
VH: EVQLVESGGGLVQPGGSLRLSCAASGFTFSSNWMSWVRQAPGKGLEWVANIKEDGSEKYYVDSVKGRFTIFRDNAKNSLYLQMNSLRAEDTAVYYCARVPSRYGRSRGAFDIWGQGTMVTVSS
VL: DIQMTQSPSSLSASVGDRVTITCRASQSISSYLNWYQQKPGKAPKLLIYAASSLQSGVPSRFSGSGSGTDFTLAISSLQPEDFATYYCHQTYSTRLTFGGGTEVEIKR
notes: as for B1
Take B7: the binding result in assay [9] was “binds”.

B8: THNS1006 (antibody, V domains shown)
VH: QVQLVESGGGVVQPGRSLRLSCAASGFTFSSYGMHWVRQAPGKGLEWVAIISYDGSNKYYADSVKGRFTISRDKSKNTLYLQMNSLRAEDTAVYYCAKSKGNYRDAMDVWGQGTTVTVSS
VL: SYVLTQPPSVSVAPGQTARITCGGNNIGSKSVHWYQQKPGQAPVLVVYDDSDRPSGIPERFSGSNSGNTATLTISRVEAGDEADYYCQVWDSSSDPWVFGGGTKLTVLG
notes: as for B1
For the molecule B8, the binding result in assay [10] and in [11] was “binds” in each case.

(Values after patent US20220204643A1 (published 2022).)
